Data from patent US20230090771A1 (REGENTS OF THE UNIVERSITY OF MINNESOTA, published 2023).

Legend:
[1] = target: T1, his6-SonA (Shewanella oneidensis), expressed alone as substrate for kinetics
T1 chain: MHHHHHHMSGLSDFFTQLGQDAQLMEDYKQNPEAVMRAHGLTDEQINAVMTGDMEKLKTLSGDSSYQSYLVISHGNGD

[2] = target: T2, his6-SonA, split borosin precursor SonA (Shewanella oneidensis) with N-terminal hexa-histidine tag, co-expressed with SonM
T2 chain: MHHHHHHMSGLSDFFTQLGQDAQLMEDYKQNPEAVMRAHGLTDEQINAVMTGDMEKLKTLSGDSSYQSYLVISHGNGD

[3] = target: T3, his6-SonA, split borosin precursor SonA (Shewanella oneidensis) with N-terminal hexa-histidine tag, … (Shewanella oneidensis, alpha-N-methylations on L63 and I65 (the vast majority purified in the 2-alpha-N-methylated state)); assay: co-purification of untagged SonM with his6-SonA by nickel affinity and size exclusion chromatography, SDS-PAGE
T3 construct: This complex was used for crystallisation; also called WP_011071666
T3 chain: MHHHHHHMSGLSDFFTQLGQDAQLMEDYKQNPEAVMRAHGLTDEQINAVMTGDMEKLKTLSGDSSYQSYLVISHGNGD

B1: his6-SonM wild type (Shewanella oneidensis), expressed alone for kinetics (protein)
chain: MHHHHHHSSMGSLVCVGTGLQLAGQISVLSRSYIEHADIVFSLLPDGFSQRWLTKLNPNVINLQQFYAQNGEVKNRRDTYEQMVNAILDAVRAGKKTVCALYGHPGVFACVSHMAITRAKAEGFSAKMEPGISAEACLWADLGIDPGNSGHQSFEASQFMFFNHVPDPTTHLLLWQIAIAGEHTLTQFHTSSDRLQILVEQLNQWYPLDHEVVIYEAANLPIQAPRIERLPLANLPQAHLMPISTLLIPPAKKLEYNYAILAKLGIGPEDLG
substrate turnover (coupled-enzyme Michaelis-Menten kinetics) [1]: SonM wild type (WT) and several active-site mutants reveal multiple SonA substrate turnover

B2: SonM mutant Y71F (protein)
chain: MHHHHHHSSMGSLVCVGTGLQLAGQISVLSRSYIEHADIVFSLLPDGFSQRWLTKLNPNVINLQQFYAQNGEVKNRRDTFEQMVNAILDAVRAGKKTVCALYGHPGVFACVSHMAITRAKAEGFSAKMEPGISAEACLWADLGIDPGNSGHQSFEASQFMFFNHVPDPTTHLLLWQIAIAGEHTLTQFHTSSDRLQILVEQLNQWYPLDHEVVIYEAANLPIQAPRIERLPLANLPQAHLMPISTLLIPPAKKLEYNYAILAKLGIGPEDLG
substrate turnover (coupled-enzyme Michaelis-Menten kinetics) [1]: SonM wild type (WT) and several active-site mutants reveal multiple SonA substrate turnover

B3: SonM mutant R67K (protein)
chain: MHHHHHHSSMGSLVCVGTGLQLAGQISVLSRSYIEHADIVFSLLPDGFSQRWLTKLNPNVINLQQFYAQNGEVKNKRDTYEQMVNAILDAVRAGKKTVCALYGHPGVFACVSHMAITRAKAEGFSAKMEPGISAEACLWADLGIDPGNSGHQSFEASQFMFFNHVPDPTTHLLLWQIAIAGEHTLTQFHTSSDRLQILVEQLNQWYPLDHEVVIYEAANLPIQAPRIERLPLANLPQAHLMPISTLLIPPAKKLEYNYAILAKLGIGPEDLG
substrate turnover (coupled-enzyme Michaelis-Menten kinetics) [1]: SonM wild type (WT) and several active-site mutants reveal multiple SonA substrate turnover

B4: SonM mutant Y93F (protein)
chain: MHHHHHHSSMGSLVCVGTGLQLAGQISVLSRSYIEHADIVFSLLPDGFSQRWLTKLNPNVINLQQFYAQNGEVKNRRDTYEQMVNAILDAVRAGKKTVCALFGHPGVFACVSHMAITRAKAEGFSAKMEPGISAEACLWADLGIDPGNSGHQSFEASQFMFFNHVPDPTTHLLLWQIAIAGEHTLTQFHTSSDRLQILVEQLNQWYPLDHEVVIYEAANLPIQAPRIERLPLANLPQAHLMPISTLLIPPAKKLEYNYAILAKLGIGPEDLG
substrate turnover (coupled-enzyme Michaelis-Menten kinetics) [1]: SonM wild type (WT) and several active-site mutants reveal multiple SonA substrate turnover

B5: SonM mutant Y58F (protein)
chain: MHHHHHHSSMGSLVCVGTGLQLAGQISVLSRSYIEHADIVFSLLPDGFSQRWLTKLNPNVINLQQFFAQNGEVKNRRDTYEQMVNAILDAVRAGKKTVCALYGHPGVFACVSHMAITRAKAEGFSAKMEPGISAEACLWADLGIDPGNSGHQSFEASQFMFFNHVPDPTTHLLLWQIAIAGEHTLTQFHTSSDRLQILVEQLNQWYPLDHEVVIYEAANLPIQAPRIERLPLANLPQAHLMPISTLLIPPAKKLEYNYAILAKLGIGPEDLG
substrate turnover (coupled-enzyme Michaelis-Menten kinetics) [1]: SonM wild type (WT) and several active-site mutants reveal multiple SonA substrate turnover

B6: split borosin alpha-N-methyltransferase SonM (Shewanella oneidensis), untagged, co-expressed with his6-SonA (enzyme)
chain: MGSLVCVGTGLQLAGQISVLSRSYIEHADIVFSLLPDGFSQRWLTKLNPNVINLQQFYAQNGEVKNRRDTYEQMVNAILDAVRAGKKTVCALYGHPGVFACVSHMAITRAKAEGFSAKMEPGISAEACLWADLGIDPGNSGHQSFEASQFMFFNHVPDPTTHLLLWQIAIAGEHTLTQFHTSSDRLQILVEQLNQWYPLDHEVVIYEAANLPIQAPRIERLPLANLPQAHLMPISTLLIPPAKKLEYNYAILAKLGIGPEDLG
notes: also called WP_011071665
MS1 alpha-N-methylation profile of SonA co-purified with SonM [2]: the vast majority of SonA is purified as the 2-alpha-N-methylated state | binding result [3]: binds
